Reference: publication PMC5792622 (Nature Communications, 2018)

Molecular target: the molecule itself
Assay: crystal structure

B1: hexon protein of HAdV5^HVR7 (human adenovirus type 5 with four mutations in hypervariable region 7 of the hexon) (natural protein)
chain: MATPSMMPQWSYMHISGQDASEYLSPGLVQFARATETYFSLNNKFRNPTVAPTHDVTTDRSQRLTLRFIPVDREDTAYSYKARFTLAVGDNRVLDMASTYFDIRGVLDRGPTFKPYSGTAYNALAPKGAPNPCEWDEAATALEINLEEEDDDNEDEVDEQAEQQKTHVFGQAPYSGINITKEGIQIGVEGQTPKYADKTFQPEPQIGESQWYETEINHAAGRVLKKTTPMKPCYGSYAKPTNENGGQGILVKQQNGKLESQVEMQFFSTTEATAGNGDNLTPKVVLYSEDVDIETPDTHISYMPTIKEGNSRELMGQQSMPNRPNYIAFRDNFIGLMYYNSTGNMGVLAGQASQLNAVVDLQDRNTELSYQLLLDSIGDRTRYFSMWNQAVDSYDPDVRIIENHGTEDELPNYCFPLGGVGNNSTYTKVKPKTGQENGWEKDATEFSDKNEIRVGNNFAMEINLNANLWRNFLYSNIALYLPDKLKYSPSNVKISDNPNTYDYMNKRVVAPGLVDCYINLGARWSLDYMDNVNPFNHHRNAGLRYRSMLLGNGRYVPFHIQVPQKFFAIKNLLLLPGSYTYEWNFRKDVNMVLQSSLGNDLRVDGASIKFDSICLYATFFPMAHNTASTLEAMLRNDTNDQSFNDYLSAANMLYPIPANATNVPISIPSRNWAAFRGWAFTRLKTKETPSLGSGYDPYYTYSGSIPYLDGTFYLNHTFKKVAITFDSSVSWPGNDRLLTPNEFEIKRSVDGEGYNVAQCNMTKDWFLVQMLANYNIGYQGFYIPESYKDRMYSFFRNFQPMSRQVVDDTKYKDYQQVGILHQHNNSGFVGYLAPTMREGQAYPANFPYPLIGKTAVDSITQKKFLCDRTLWRIPFSSNFMSMGALTDLGQNLLYANSAHALDMTFEVDPMDEPTLLYVLFEVFDVVRVHRPHRGVIETVYLRTPFSAGNATT
modifications: biotin (NHS-biotin), for the SPR only
notes: also called HAdV5^HVR7 hexon
  stoichiometry N: 3
